B1: HDV Ribozyme (parent)
chain: GGCCGGCAUGGUCCCAGCCUCCUCGCUGGCGCCGGCUGGGCAACAUUCCGAGGGGACCGUCCCCUCGGUAAUGGCGAAUGGGACCCA

Variants of: B1
Assay: self-cleavage, relative activity (ratio to wild type); higher = more cleavage; co-transcriptional

Variant	self-cleavage
U46A C75G	0.0594
U46A G52C	0.759
C44U G73U	0.172
C44U G73C	0.47
A45C C84U	0.499
A45C C84A	0.655
A45C C84G	0.297
A45U C86G	0.795
A45U C86A	0.77
A45U C86U	0.95
A45G C49A	0.872
A45G C49U	1.24
A45G C49G	0.831
A45C A78G	0.178
A45C A78U	0.229
U46A C64U	0.649
U46A C64A	0.554
U46A C64G	0.38
A45U A70U	0.989
A45G U60C	0.831
U46A U60A	0.751

Variant	self-cleavage
A45U G50A	0.844
A45U G50C	0.767
A45U C61U	0.876
U46A A51U	0.536
U46A A51G	0.739
U46A A51C	0.831
A45C G74U	0.369
A45U C57U	0.712
A45C G76C	0.68
A45C G76A	0.869
C44U U60G	0.686
C44U G74C	0.233
C44U G74U	0.67
C44U G74A	0.427
U46C A70U	0.957
U46C A70C	0.795
U46A G53U	0.712
U46A C48U	0.739
U46A C48G	0.802
A45U G73C	0.62
U46C C75G	0.469

Variant	self-cleavage
U46A A87G	0.712
U46A A87U	0.76
U46C G67U	0.831
U46C G67C	0.469
U46A G80C	0.0831
U46C G73C	0.525
C44U G67A	0.82
C44U U79C	0.269
C44U U79A	0.688
A45G A51C	0.987
A45G C64U	0.889
A45G C64G	0.591
A45G A70G	0.997
A45G A70C	0.88
A45G A70U	1.09
A45U U46A	0.639
A45G A71U	0.997
U46A G50U	0.73
U46A G50C	0.597
U46C A71C	0.772
U46C A71U	0.767

Variant	self-cleavage
U46C A71G	1.2
U46A G73U	0.0811
A45U C48U	0.79
A45U C48A	0.7
A45U G68U	0.845
A45G G53C	1.05
A45G G53U	0.884
U46A C66G	1.05
A45C G81A	0.0959
A45C G81U	0.262
U46A G59C	0.57
U46A G59U	0.674
A45U C64U	0.764
A45U C64A	0.882
A45G G59U	0.931
A45G G59C	1.02
A45U C85A	0.88
U46A A77G	0.646
U46A A77C	0.119
U46A A77U	0.115
